Measurements from patent publication US20060240417A1, “Agent controlling the apoptosis induction by p73” (Hisamitsu Pharmaceutical Co., Inc., priority 2002, published 2006).

T1: p73beta (UniProt O15350-2 O15350-2:1-499)
T1 sequence: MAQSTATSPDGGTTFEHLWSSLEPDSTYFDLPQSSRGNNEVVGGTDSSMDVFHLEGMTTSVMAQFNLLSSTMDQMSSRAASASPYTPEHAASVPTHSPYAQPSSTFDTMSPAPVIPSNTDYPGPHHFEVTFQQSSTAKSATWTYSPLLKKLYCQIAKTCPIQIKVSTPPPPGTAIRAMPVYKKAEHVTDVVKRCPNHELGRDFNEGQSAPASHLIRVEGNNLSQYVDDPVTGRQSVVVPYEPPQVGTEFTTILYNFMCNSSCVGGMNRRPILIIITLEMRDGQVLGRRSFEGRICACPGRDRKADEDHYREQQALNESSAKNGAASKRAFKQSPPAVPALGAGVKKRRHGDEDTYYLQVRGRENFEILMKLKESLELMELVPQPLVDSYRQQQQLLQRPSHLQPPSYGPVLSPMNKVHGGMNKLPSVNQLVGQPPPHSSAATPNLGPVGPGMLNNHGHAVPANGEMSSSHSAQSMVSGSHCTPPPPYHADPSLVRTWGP

T2: p73alpha (UniProt O15350 O15350:1-636)
T2 sequence: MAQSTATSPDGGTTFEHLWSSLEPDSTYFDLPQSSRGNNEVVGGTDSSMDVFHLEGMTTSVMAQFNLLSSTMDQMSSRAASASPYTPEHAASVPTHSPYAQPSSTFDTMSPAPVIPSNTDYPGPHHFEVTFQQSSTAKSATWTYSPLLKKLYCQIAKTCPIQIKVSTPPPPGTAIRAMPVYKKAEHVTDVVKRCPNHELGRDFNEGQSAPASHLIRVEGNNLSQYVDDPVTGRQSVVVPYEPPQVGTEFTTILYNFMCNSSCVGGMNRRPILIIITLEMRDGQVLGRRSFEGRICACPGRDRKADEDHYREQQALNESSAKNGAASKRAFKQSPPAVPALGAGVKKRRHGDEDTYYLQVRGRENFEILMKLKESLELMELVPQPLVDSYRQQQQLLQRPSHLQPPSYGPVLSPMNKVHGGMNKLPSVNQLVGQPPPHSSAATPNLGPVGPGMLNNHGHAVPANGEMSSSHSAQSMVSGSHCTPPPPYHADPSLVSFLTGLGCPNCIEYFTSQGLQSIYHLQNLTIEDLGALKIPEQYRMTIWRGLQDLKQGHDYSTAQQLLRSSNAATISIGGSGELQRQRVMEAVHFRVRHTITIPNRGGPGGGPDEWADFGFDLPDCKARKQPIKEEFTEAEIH


Experiments:
[1] = tested on: p73α and ΔNp73α in SH-SY5Y cells; assay: Immunoblot (Western blotting) of cisplatin-treated tumor cells; format: cell-based, human; details: tumor cells treated with cisplatin, RT-PCR
Description: The present inventors ascertained that treating tumor cells with the DNA inhibiting agent cisplatin causes apoptosis of the tumor cells in a dose-dependent manner. Production of proteins p53 and p73α was confirmed by Western blotting. The tumor cells in this case are preferably neuroblastoma cells, but may also be other central or peripheral nervous system tumor cells.
The cells were lysed in EBC buffer (50 mM Tris-HCl, pH 8.0/120 mM NaCl/0.5% Nonidet P-40) containing 1 mM phenylmethylsulfonyl fluoride. The lysate was clarified by centrifugation at 14,000 rpm at 4° C. for 15 minutes. The protein concentration was determined by the Bradford procedure. For immunoblot analysis, the proteins were resolved by SDS […] gel electrophoresis and transferred to a nitrocellulose membrane. The membrane filter was blocked with 5% powdered milk in TBST (10 mM Tris-HCl, pH 8.0/150 mM NaCl/0.1% Tween 20) for 1 hour at room temperature. […] The bound secondary antibody was detected by enhanced chemiluminescence (ECL, Amersham Pharmacia Biotech) according to the manufacturer's protocol.
The whole cell protein (40 μg) was extracted from each culture. The expression levels of p73α and p53 were each determined by immunoblot analysis (described above) using p73α-specific antibody (Ab-1) or p53-specific antibody (DO-1). […]

[2] = target: T1, p73beta; assay: EMSA; supershifted by anti-HA; poly(dI-dC), 3.125 mM MgCl2, room temperature; details: tags: HA tag; TNT reticulocyte lysate; label: 32P
[3] = target: T2, p73alpha; assay: as above; details: tags: HA tag; TNT reticulocyte lysate; label: 32P

Molecule | production of p73α and ΔNp73α at mRNA and protein level [1] | binding result [2] | binding result [3]
N.N.[Cl][Pt][Cl] [cisplatin] | induces production of p73α and ΔNp73α | – | –
deltaNp73 promoter 61-bp probe (dsDNA) DNA 1: GTGCGGTCCAACACATCACCGGGCAAGCTGAGGCCTGCCCCGGACTTGGATGAATACTCAT DNA 2: ATGAGTATTCATCCAAGTCCGGGGCAGGCCTCAGCTTGCCCGGTGATGTGTTGGACCGCAC | – | binds | binds
